From the supplement of paper PMC5998384 come the findings set out here.

In data set [1] the test system is HeLa Kyoto. Description: solubility in G1/S (NP-40 vs SDS abundance) (log2 ratio); higher = more soluble. Conditions: cell cycle stage: G1/S.
Data set [2] deals with HeLa Kyoto. Briefly: melting temperature (median over replicates), in situ; higher = more thermally stable.
The test system of data set [3] is HeLa Kyoto. Description: solubility change mitosis vs G1/S (difference of NP-40 vs SDS log2 ratios) (log2 ratio difference); higher = more soluble in mitosis.
The subject of data set [4] is HeLa Kyoto. Briefly: thermal stability score vs G1/S (z-score of summed log2 fold changes over temperatures); higher = more thermally stable than in G1/S.
Where [5] appears, read: cell cycle stage: early G1 (4.5 h after nocodazole release).
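Throughout, for melting temperature (median over replicates), in situ: HeLa Kyoto cells synchronized by double thymidine or nocodazole block, proteins quantified by TMT10plex mass spectrometry, three independent biological replicates.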
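Throughout, for solubility change mitosis vs G1/S (difference of NP-40 vs SDS log2 ratios): synchronized HeLa Kyoto cells (double thymidine block for G1/S, nocodazole release for mitosis), protein amounts in NP-40 versus SDS lysates quantified by mass spectrometry, three biological replicates.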
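Throughout, for solubility in G1/S (NP-40 vs SDS abundance): HeLa Kyoto cells arrested at G1/S by double thymidine block, proteins quantified by TMT10plex mass spectrometry in mild NP-40 versus SDS extracts, three biological replicates.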
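Throughout, for thermal stability score vs G1/S (z-score of summed log2 fold changes over temperatures): synchronized HeLa Kyoto cells, proteins quantified by TMT10plex mass spectrometry, three biological replicates, mitosis taken 0.5 h after nocodazole release, G1/S directly after double thymidine block.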

With “MAAALWGFFPVLLLLLLSGDVQSSEVPGAAAEGSGGSGVGIGDRFKIEGRAVVPGVKPQDWISAARVLVDGEEHVGFLKTDGSFVVHDIPSGSYVVEVVSPAYRFDPVRVDITSKGKMRARYVNYIKTSEVVRLPYPLQMKSSGPPSYFIKRESWGWTDFLMNPMVMMMVLPLLIFVLLPKVVNTSDPDMRREMEQSMNMLNSNHELPDVSEFMTRLFSSKSSGKSSSGSSKTGKSGAGKRR [EMC7]”, in the data set on HeLa Kyoto [1], the “solubility in G1/S (log2)” value was found to be 0.424. In addition, the results for the melting temperature with HeLa Kyoto [2] (cell cycle stage: G1/S) and in the data set with HeLa Kyoto [2] (cell cycle stage: mitosis) were 54.4 °C and 54.1 °C, respectively. In the data set on HeLa Kyoto [3], the “solubility change mitosis (log2)” value worked out at 0.0594. Also, the thermal stability score with HeLa Kyoto [4] (setting [5]) was -1.44; in the data set with HeLa Kyoto [4] (cell cycle stage: mitosis), -0.331.

For the sequence “MAAAPPLSKAEYLKRYLSGADAGVDRGSESGRKRRKKRPKPGGAGGKGMRIVDDDVSWTAISTTKLEKEEEEDDGDLPVVAEFVDERPEEVKQMEAFRSSAKWKLLGGHNEDLPSNRHFRHDTPDSSPRRVRHGTPDPSPRKDRHDTPDPSPRRARHDTPDPSPLRGARHDSDTSPPRRIRHDSSDTSPPRRARHDSPDPSPPRRPQHNSSGASPRRVRHDSPDPSPPRRARHGSSDISSPRRVHNNSPDTSRRTLGSSDTQQLRRARHDSPDLAPNVTYSLPRTKSGKAPERASSKTSPHWKESGASHLSFPKNSKYEYDPDISPPRKKQAKSHFGDKKQLDSKGDCQKATDSDLSSPRHKQSPGHQDSDSDLSPPRNRPRHRSSDSDLSPPRRRQRTKSSDSDLSPPRRSQPPGKKAAHMYSGAKTGLVLTDIQREQQELKEQDQETMAFEAEFQYAETVFRDKSGRKRNLKLERLEQRRKAEKDSERDELYAQWGKGLAQSRQQQQNVEDAMKEMQKPLARYIDDEDLDRMLREQEREGDPMANFIKKNKAKENKNKKVRPRYSGPAPPPNRFNIWPGYRWDGVDRSNGFEQKRFARLASKKAVEELAYKWSVEDM [BUD13]”, the “solubility in G1/S (log2)” value in the data set with HeLa Kyoto [1] is -0.884. The melting temperature with HeLa Kyoto [2] (cell cycle stage: G1/S) stood at 52.9 °C; in the data set with HeLa Kyoto [2] (cell cycle stage: mitosis), 53 °C. In the data set on HeLa Kyoto [3], the “solubility change mitosis (log2)” value worked out at 0.878. Also, the thermal stability score with HeLa Kyoto [4] (setting [5]) is 0.0865; with HeLa Kyoto [4] (cell cycle stage: mitosis), -0.687.

As to “MAAARHSTLDFMLGAKADGETILKGLQSIFQEQGMAESVHTWQDHGYLATYTNKNGSFANLRIYPHGLVLLDLQSYDGDAQGKEEIDSILNKVEERMKELSQDSTGRVKRLPPIVRGGAIDRYWPTADGRLVEYDIDEVVYDEDSPYQNIKILHSKQFGNILILSGDVNLAESDLAYTRAIMGSGKEDYTGKDVLILGGGDGGILCEIVKLKPKMVTMVEIDQMVIDGCKKYMRKTCGDVLDNLKGDCYQVLIEDCIPVLKRYAKEGREFDYVINDLTAVPISTSPEEDSTWEFLRLILDLSMKVLKQDGKYFTQGNCVNLTEALSLYEEQLGRLYCPVEFSKEIVCVPSYLELWVFYTVWKKAKP [SMS]”, the “solubility in G1/S (log2)” value in the data set with HeLa Kyoto [1] amounted to 0.398. Besides, the melting temperature with HeLa Kyoto [2] (cell cycle stage: G1/S) worked out at 56.6 °C; with HeLa Kyoto [2] (cell cycle stage: mitosis) it was 56.5 °C. Besides, the “solubility change mitosis (log2)” value in the data set on HeLa Kyoto [3] is -0.166. For the same sequence, the results for the thermal stability score in the data set on HeLa Kyoto [4] (setting [5]) and with HeLa Kyoto [4] (cell cycle stage: mitosis) were -2.98 and -1.47, respectively.

On to “MAAATGDPGLSKLQFAPFSSALDVGFWHELTQKKLNEYRLDEAPKDIKGYYYNGDSAGLPARLTLEFSAFDMSAPTPARCCPAIGTLYNTNTLESFKTADKKLLLEQAANEIWESIKSGTALENPVLLNKFLLLTFADLKKYHFYYWFCYPALCLPESLPLIQGPVGLDQRFSLKQIEALECAYDNLCQTEGVTALPYFLIKYDENMVLVSLLKHYSDFFQGQRTKITIGVYDPCNLAQYPGWPLRNFLVLAAHRWSSSFQSVEVVCFRDRTMQGARDVAHSIIFEVKLPEMAFSPDCPKAVGWEKNQKGGMGPRMVNLSECMDPKRLAESSVDLNLKLMCWRLVPTLDLDKVVSVKCLLLGAGTLGCNVARTLMGWGVRHITFVDNAKISYSNPVRQPLYEFEDCLGGGKPKALAAADRLQKIFPGVNARGFNMSIPMPGHPVNFSSVTLEQARRDVEQLEQLIESHDVVFLLMDTRESRWLPAVIAASKRKLVINAALGFDTFVVMRHGLKKPKQQGAGDLCPNHPVASADLLGSSLFANIPGYKLGCYFCNDVVAPGDSTRDRTLDQQCTVSRPGLAVIAGALAVELMVSVLQHPEGGYAIASSSDDRMNEPPTSLGLVPHQIRGFLSRFDNVLPVSLAFDKCTACSSKVLDQYEREGFNFLAKVFNSSHSFLEDLTGLTLLHQETQAAEIWDMSDDETI [ATG7]”, for which, in the data set with HeLa Kyoto [1], the “solubility in G1/S (log2)” value was -0.177. Besides, the melting temperature turned out to be 51.3 °C with HeLa Kyoto [2] (cell cycle stage: G1/S) and 51.5 °C with HeLa Kyoto [2] (cell cycle stage: mitosis). The “solubility change mitosis (log2)” value in the data set on HeLa Kyoto [3] was -0.0691. In addition, the thermal stability score is -0.14 with HeLa Kyoto [4] (setting [5]) and 0.0236 in the data set with HeLa Kyoto [4] (cell cycle stage: mitosis).

As for “MAAATGPSFWLGNETLKVPLALFALNRQRLCERLRKNPAVQAGSIVVLQGGEETQRYCTDTGVLFRQESFFHWAFGVTEPGCYGVIDVDTGKSTLFVPRLPASHATWMGKIHSKEHFKEKYAVDDVQYVDEIASVLTSQKPSVLLTLRGVNTDSGSVCREASFDGISKFEVNNTILHPEIVECRVFKTDMELEVLRYTNKISSEAHREVMKAVKVGMKEYELESLFEHYCYSRGGMRHSSYTCICGSGENSAVLHYGHAGAPNDRTIQNGDMCLFDMGGEYYCFASDITCSFPANGKFTADQKAVYEAVLRSSRAVMGAMKPGVWWPDMHRLADRIHLEELAHMGILSGSVDAMVQAHLGAVFMPHGLGHFLGIDVHDVGGYPEGVERIDEPGLRSLRTARHLQPGMVLTVEPGIYFIDHLLDEALADPARASFLNREVLQRFRGFGGVRIEEDVVVTDSGIELLTCVPRTVEEIEACMAGCDKAFTPFSGPK [PEPD]”, in the data set with HeLa Kyoto [1], the “solubility in G1/S (log2)” value was -0.0689. Besides, the melting temperature with HeLa Kyoto [2] (cell cycle stage: G1/S) is 54.1 °C; in the data set on HeLa Kyoto [2] (cell cycle stage: mitosis), 53.8 °C. The “solubility change mitosis (log2)” value with HeLa Kyoto [3] is -0.184. Moreover, the thermal stability score was -1.19 in the data set with HeLa Kyoto [4] (setting [5]) and -2.41 with HeLa Kyoto [4] (cell cycle stage: mitosis).

Turning to “MAAAVGRLLRASVARHVSAIPWGISATAALRPAACGRTSLTNLLCSGSSQAKLFSTSSSCHAPAVTQHAPYFKGTAVVNGEFKDLSLDDFKGKYLVLFFYPLDFTFVCPTEIVAFSDKANEFHDVNCEVVAVSVDSHFSHLAWINTPRKNGGLGHMNIALLSDLTKQISRDYGVLLEGSGLALRGLFIIDPNGVIKHLSVNDLPVGRSVEETLRLVKAFQYVETHGEVCPANWTPDSPTIKPSPAASKEYFQKVNQ [PRDX3]”, in the data set with HeLa Kyoto [1], the “solubility in G1/S (log2)” value worked out at 0.452. Moreover, the figures for the melting temperature in the data set on HeLa Kyoto [2] (cell cycle stage: G1/S) and with HeLa Kyoto [2] (cell cycle stage: mitosis) were 58.2 °C and 57.9 °C, respectively. Also, the “solubility change mitosis (log2)” value in the data set on HeLa Kyoto [3] was -0.00401. The thermal stability score in the data set on HeLa Kyoto [4] (setting [5]) is 0.801; with HeLa Kyoto [4] (cell cycle stage: mitosis), -1.38.
